Measurements as given in the supplement of paper PMC10567573.

B1: ZMYND11 (parent)
chain: YCSIKCQQEHWHAEHKRTCRRKR

Variants of: B1
Experiment: protein stability index of a GFP-peptide fusion (GPS, HEK-293T) (PSI 1-6); higher = more stable
Details: c terminus: native
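Note: lentivirally expressed fusions sorted by FACS into six bins by GFP to DsRed ratio, PSI derived from sequencing read proportions per bin multiplied by bin number.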

Protein stability index of substitutions, site by site:
R21: I 2.99, M 2.4, T 2.41, H 1.97, N 1.98, Q 2.04, G 2.84, A 2.2, P 1.52, F 2.45, W 1.94, L 2.2, K 2.92, C 2.15, V 2.61, D 1.96, Y 2.2, E 2.43, S 3.06
R20: Y 2.28, L 2.17, A 2.33, W 1.98, H 2.2, F 3.4, T 3.02, N 2.02, G 2.65, I 1.35, P 1.89, C 2, K 1.72, V 2.8, S 1.99, Q 1.51, D 1.76
H10: Y 1.73, G 2.81, Q 2.45, D 1.96, P 2.1, R 3.33, S 2.36, V 1.11, A 1.95, M 1.4, C 1.54, N 3.26, T 2.07, I 1.92, E 2.18, L 1.65, K 2.12
Q8: M 2.48, K 2.77, H 2.21, P 2.46, D 2.7, W 1.85, F 2.84, R 2.2, V 1.78, L 1.72, N 2.55, C 2.51, T 1.86, G 2.47, Y 2.08, I 1.49, A 2.33, E 2.34, S 2.51
R23: Y 1.41, E 2.77, T 2.26, L 2.2, S 2.64, M 2.15, W 4.23, P 3.21, A 2.28, C 2.04, Q 3.2, F 1.58, D 1.86, V 1.26, G 5.07, K 2.11, H 2.26, N 2.09
T18: I 2.76, W 2.16, F 2.47, H 2.5, Y 2.45, C 2.85, A 2.36, K 2.84, P 2.08, L 1.27, G 2.39, N 3.18, Q 3.08, D 2.95, V 1.61, S 2.56, R 2.29, M 1.91, E 2.56
K22: S 3.04, C 2.6, P 1.94, Q 2.64, R 1.79, M 1.55, W 2.97, H 1.74, D 1.85, Y 1.53, N 1.37, G 2.33, T 1.91, L 2.02, E 2.41, A 1.83, I 2.37, V 2.15, F 2.13
Q7: C 1.95, D 2.56, W 1.53, E 2.42, F 1.67, G 2.46, A 2.36, V 1.37, Y 2.35, T 2.63, N 2.38, H 2.69, L 2.21, K 3.05, P 2.2, S 3.18, M 2.15, I 2.44
H15: G 2.44, Q 2.06, C 2.38, S 2.44, M 1.6, T 2.41, N 2.4, L 3.01, R 2.18, I 1.95, W 1.69, P 2.71, K 2.01, Y 2.01, F 1.44, A 1.9, E 2.79, V 1.24
E9: F 2.11, P 2.11, T 1.97, M 1.53, H 2.78, S 1.68, K 2.17, G 2.89, A 2.65, N 1.94, W 2.37, R 2.6, D 2.31, C 3.31, Y 1.93, I 2.11, V 2.93, Q 1.52, L 2.07
W11: I 3.03, M 3.58, P 4.14, A 2.98, Q 4.24, E 4.32, Y 3.32, N 3.98, T 4.7, D 4.43, F 2.76, R 2.96, K 3.52, C 3.41, L 2.97, G 4.05, H 3.45, V 3.48, S 3.2
C19: F 2.24, E 2.75, P 3.4, H 2.71, Y 3.63, I 2.72, D 3.46, G 2.71, M 2.41, N 2.21, A 2.84, T 2.77, V 2.48, Q 2.19, R 2.76, S 2.82, L 2.83, W 1.98, K 2.3
E14: T 2.36, F 1.76, L 1.87, H 2.53, R 2.35, P 1.84, Y 2.22, S 2.48, V 2.13, Q 2.26, K 2.92, M 1.77, G 3.11, A 2.94, W 1.71, C 2.54, D 2.26, I 1.95, N 2.17
K16: M 2.16, T 2.71, R 1.76, F 1.95, G 2.83, Q 2.34, D 2.43, N 2.11, A 2.53, Y 1.62, E 2.46, H 2.84, V 2.39, W 1.74, I 2.18, L 2.42, C 2.74, S 2.56
H12: M 1.31, I 1.59, G 2.73, D 2.82, E 2.67, C 2.09, T 2.33, P 2.64, Y 3.37, N 2.9, K 2.42, R 2.53, Q 2.36, A 2.35, S 2.22, L 2.53, V 1.54
A13: H 3.55, D 3.16, Y 2.1, V 2.89, P 1.9, G 2.62, E 2.16, M 2.86, F 1.83, N 2.78, L 1.61, W 1.32, T 1.98, Q 2.18, I 2.58, K 2.65, C 2.15, R 2.49
R17: E 2.65, L 2.25, C 3.29, W 1.56, T 2.25, K 2.27, M 2.32, V 2.55, H 2.44, I 2.58, S 2.77, F 1.8, Q 2.39, P 2.89, D 2.63, Y 1.82, A 2.61, N 2.28
C6: T 1.87, W 1.77, V 2.59, S 2.38, Y 2.07
